Assays:
[1] = molecular target: T1, fragment DIR-II (last 27 amino acids of the sequence encoded by the retained intron of DIR) (human); assay: ELISA, DIR-II coated; mAb (1 mg/mL) diluted 1:6k
T1 construct: also called target fragment DIR-II
T1 peptide: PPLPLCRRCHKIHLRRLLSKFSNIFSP
Experimental: (§1) The binding activity of the above antibodies IR-II-1 to IR-II-10 to fragments DIR-II was detected. The method specifically comprises:
(§2) The target fragment DIR-II was coated on a 96-well plate using a coating buffer and blocked with a blocking buffer. […] Then, a secondary antibody with horseradish peroxidase (1:5k) was added and incubated at 37° C. After washing three times, an appropriate volume of TMB substrate solution was added, and the resulting mixture was incubated at 37° C. for a certain period of time, and then placed under a microplate reader to record the absorbance value of the sample at a wavelength of 450 nm.

[2] = molecular target: T1, fragment DIR-II (last 27 amino acids of …); assay: ELISA, DIR-II coated; mAb (1 mg/mL) diluted 1:1458k
Experimental: as §1, §2

[3] = molecular target: T1, fragment DIR-II (last 27 amino acids of …); assay: ELISA, DIR-II coated; mAb (1 mg/mL) diluted 1:162k
Experimental: as §1, §2

[4] = molecular target: T1, fragment DIR-II (last 27 amino acids of …); assay: ELISA, DIR-II coated; mAb (1 mg/mL) diluted 1:2k
Experimental: as §1, §2

[5] = molecular target: T1, fragment DIR-II (last 27 amino acids of …); assay: ELISA, DIR-II coated; mAb (1 mg/mL) diluted 1:486k
Experimental: as §1, §2

[6] = molecular target: T1, fragment DIR-II (last 27 amino acids of …); assay: ELISA, DIR-II coated; mAb (1 mg/mL) diluted 1:54k
Experimental: as §1, §2

[7] = molecular target: T1, fragment DIR-II (last 27 amino acids of …); assay: ELISA, DIR-II coated; mAb (1 mg/mL) diluted 1:4374k
Experimental: as §1, §2

[8] = molecular target: T1, fragment DIR-II (last 27 amino acids of …); assay: ELISA, DIR-II coated; mAb (1 mg/mL) diluted 1:18k
Experimental: as §1, §2

[9] = molecular target: T2, DNA damage-inducible transcript 4-like (DDIT4L) intron retention spliced product (DIR) protein (human); assay: sandwich ELISA, capture antibody GL Biochem AB009458, detection antibody IR-II-6 (method of paragraph 444)
T2 construct: 84 aa spliced product peptide; also called QDLIR; human DIR
T2 chain: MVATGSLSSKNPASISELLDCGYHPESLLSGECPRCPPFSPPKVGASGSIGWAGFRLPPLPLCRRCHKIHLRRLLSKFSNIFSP
Experimental: Methods for collecting venous blood and obtaining plasma: The blood was collected from the vein in cubital fossa of a patient into an EDTA vacuum tube by using the vacuum blood collection technique, and the tube was immediately inverted gently 8 times to fully mix the blood and an anticoagulant. Then, the tube was transported to the laboratory on ice, centrifuged for 10 min at 1500 g at 4° C., and the supernatant was aspirated, aliquoted, and stored at −80° C.
ELISA method for plasma: The plasma sample was diluted at 1:1 with 1× diluent (OBT1998G, purchased from Bio-Rad); then, 100 μl of a blocking solution was added using a pipette for blockage for 1 h at 37° C.; then, 100 μl of a proportionally diluted standard and diluted plasma were added into plate wells coated with capture antibodies (GL Biochem, AB009458) by using the pipette, the tip of which was changed for each sampling; the resulting mixture was incubated for 1.5 h at 37° C.; the liquid in each well was removed, and the well was washed 3 times with 100 μl 1× washing solution (BUF031C, purchased from Bio-Rad); 100 μl of detection antibody (i. e., the DIR antibody IR-II-6, of which a VH amino acid sequence was as set forth in SEQ ID NO. 58, and of which a VL amino acid sequence was as set forth in SEQ ID NO. […]

B1: DIR antibody IR-II-1 (antibody, V domains shown)
VH: QVQLKESGAELMKPGASVKISCKATGYTFSSYWIEWVKQRPGHGLEWIGEILPGSGTTNYNDKFKGKATFTADTSSNTAYMQLSNLTSEDSAVYYCARSYDGYYVFDYWGQGTTLTVSS
VL: DIELTQSPASLAVSLGQRATISCKASQSVDYDGDSYMNWYQQKPGQPPKLLIYAASNLESGIPARFSGSGSGTDFTLNIHPVEEEDAATYYCQQSNEDPRTFGGGTKLEIK
notes: Monoclonal antibody
absorbance at 450 nm [1]: 2.98 absorbance (450 nm)
absorbance at 450 nm [2]: 0.0653 absorbance (450 nm)
absorbance at 450 nm [3]: 0.109 absorbance (450 nm)
absorbance at 450 nm [4]: 3.14 absorbance (450 nm)
absorbance at 450 nm [5]: 0.0656 absorbance (450 nm)
absorbance at 450 nm [6]: 0.264 absorbance (450 nm)
absorbance at 450 nm [7]: 0.0934 absorbance (450 nm)
absorbance at 450 nm [8]: 0.818 absorbance (450 nm)

B2: DIR antibody IR-II-6 (antibody, V domains shown)
VH: QVQLQQSGAELMKPGASVKISCKATGYTFSRYWIEWIKQRPGHGLEWIGEILPGSYYSTNSNEKFKGKATFTADTSSNTAYMQLSSLTSEDSAVYYCARSGVITTRGDYFAMDYWGHGTSVTVSS
VL: DIVLTQSPASLAVSLGQRATISCKASQSVDYDGDSYMNWYQQKPGQPPKLLMYAASNLESGIPARFSGSGSGTDFTLNIHPVEEEDAATYYCQQSNEDPRTFGGGTKLEIK
notes: Monoclonal antibody; also called detection antibody
absorbance at 450 nm [1]: 3.18 absorbance (450 nm)
absorbance at 450 nm [2]: 0.2 absorbance (450 nm)
absorbance at 450 nm [3]: 0.414 absorbance (450 nm)
absorbance at 450 nm [4]: 3.09 absorbance (450 nm)
binding result [9]: binds
absorbance at 450 nm [5]: 0.306 absorbance (450 nm)
absorbance at 450 nm [6]: 0.78 absorbance (450 nm)
absorbance at 450 nm [7]: 0.18 absorbance (450 nm)
absorbance at 450 nm [8]: 2.01 absorbance (450 nm)

B3: DIR antibody IR-II-4 (antibody, V domains shown)
VH: QVQLQQSGAELMKPGASVKISCKATGYTFSSYWIEWVKQRPGHGLEWIGEILPGSGSTNYNEKFKGKATFTADTSSNTAYMQLNSLTSEDSAVYYCARTDDGYLSYFAMDYWGQGTSVTVSS
VL: DILMTQTPASLAVSLGQRATISCKASQSVDYDGDSYMNWYQQKPGQPPKLLIYAASNLESGIPARFSGSGSGTDFTLNIHPVEEEDAATYYCQQSNEDPRTFGGGTKLEIK
notes: Monoclonal antibody
absorbance at 450 nm [1]: 1.77 absorbance (450 nm)
absorbance at 450 nm [2]: 0.0751 absorbance (450 nm)
absorbance at 450 nm [3]: 0.136 absorbance (450 nm)
absorbance at 450 nm [4]: 3.3 absorbance (450 nm)
absorbance at 450 nm [5]: 0.0955 absorbance (450 nm)
absorbance at 450 nm [6]: 0.186 absorbance (450 nm)
absorbance at 450 nm [7]: 0.0775 absorbance (450 nm)
absorbance at 450 nm [8]: 0.555 absorbance (450 nm)

B4: DIR antibody IR-II-8 (antibody, V domains shown)
VH: QVQLQQSGAELMKPGASVKISCKATGYTFSNYWIEWVKQRPGHGLEWIGEILPGSGSTNYNEKFKGKATFTADTSSNTAYMQLSSLTSEDSAVYYCARSGMITTRGDYFAMDYWGQGTSVTVSS
VL: DIELTQSPASLAVSLGQRATISCKASQSVDYDGESYMNWYQQKPGQPPKLLIYAASNLESGIPARFSGSGSGTDFTLNIHPVEEEDAATYYCQQSNDDPRTFGGGTKLEIK
notes: Monoclonal antibody
absorbance at 450 nm [1]: 0.87 absorbance (450 nm)
absorbance at 450 nm [2]: 0.0906 absorbance (450 nm)
absorbance at 450 nm [3]: 0.0911 absorbance (450 nm)
absorbance at 450 nm [4]: 3.2 absorbance (450 nm)
absorbance at 450 nm [5]: 0.0864 absorbance (450 nm)
absorbance at 450 nm [6]: 0.138 absorbance (450 nm)
absorbance at 450 nm [7]: 0.0887 absorbance (450 nm)
absorbance at 450 nm [8]: 0.257 absorbance (450 nm)

B5: DIR antibody IR-II-9 (antibody, V domains shown)
VH: QVQLQQSGAELMKPGASVKISCKATGYTFSRYWIEWIKQRPGHGLEWIGEILPGSYYSTNSNEKFKGKATFTADTSSNTAYMQLSSLTSEDSAVYYCARSGVITTRGDYFAMDYWGHGTSVTVSS
VL: DIELTQSPASLAVSLGQRATISCKASQSVDYDGESYMNWYQQKPGQPPKLLIYAASNLESGIPARFSGSGSGTDFTLNIHPVEEEDAATYYCQQSYDDPRAFGGGTKLEIK
notes: Monoclonal antibody
absorbance at 450 nm [1]: 3.27 absorbance (450 nm)
absorbance at 450 nm [2]: 0.169 absorbance (450 nm)
absorbance at 450 nm [3]: 0.318 absorbance (450 nm)
absorbance at 450 nm [4]: 3.11 absorbance (450 nm)
absorbance at 450 nm [5]: 0.207 absorbance (450 nm)
absorbance at 450 nm [6]: 0.622 absorbance (450 nm)
absorbance at 450 nm [7]: 0.193 absorbance (450 nm)
absorbance at 450 nm [8]: 1.87 absorbance (450 nm)
